Series [1] has as its system His51. Briefly: kinetics. To be noted: 37 °C, multicomponent buffer: 100 mM acetate, 100 mM MES, 100 mM HEPES, 100 mM CHES, 100 mM CAPS.
The target of series [2] is His51 (UniProt position 1526, FHTMWHVTRGA). Put plainly: kinetics. To be noted: 37 °C, multicomponent buffer: 100 mM acetate, 100 mM MES, 100 mM HEPES, 100 mM CHES, 100 mM CAPS.
Where [3] appears, read: enzyme-substrate complex (pKes1, from kcat).
The mark [4] stands for this setting: free enzyme (pKe1, from kcat/Km).

With “Dengue virus 2 NS2B-NS3 protease, unlinked complex (NS2BH + NS3pro) (Dengue virus 2 (DENV2))”, the pKa with His51 [1] (setting [3]) was determined as 8.2 ± 0.1; in the series with His51 [1] (setting [4]) it was 8.7 ± 0.7.
As for “Dengue virus 2 NS2B-NS3 protease, glycine-linked (NS2BH-gly-NS3pro) (Dengue virus 2 (DENV2))”, the results for the pKa with His51 [2] (setting [3]) and in the series with His51 [2] (setting [4]) were 8.6 ± 0.4 and 8.1 ± 0.3, respectively.

The record behind these values is article PMC5126634.
